Data: publication PMC3490968

Molecular target: papain (UniProt P00784)
Test: enzyme inhibition kinetics (fluorogenic substrate, Lineweaver-Burk plot); papain 2 nM, cystatin 40, 60, 80 pM, substrate Z-Phe-Arg-7-amido-4-methylcoumarin 0.3-5 uM; 100 mM sodium phosphate pH 6.3, 10 mM EDTA, 400 mM NaCl, 2 mM dithiothreitol

UniProt P00784, sequence (P00784 134-345): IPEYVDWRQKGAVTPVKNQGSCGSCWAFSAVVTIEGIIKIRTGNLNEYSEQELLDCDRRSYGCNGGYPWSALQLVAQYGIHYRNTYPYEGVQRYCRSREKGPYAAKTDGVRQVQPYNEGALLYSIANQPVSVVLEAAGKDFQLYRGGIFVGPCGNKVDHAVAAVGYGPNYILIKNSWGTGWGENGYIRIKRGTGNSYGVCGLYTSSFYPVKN

| Ki | Substance |
| --- | --- |
| 0.14 nM | truncated AcCYS (AcCYS_DL), residue 28-135 (domain or fragment) |
| 0.2 nM | recombinant pineapple cystatin (AcCYS), residue 1-135 (natural protein) |
